Laboratory results as given in publication PMC10943247 (2024).

Tests used:
[1] = molecular target: CRL2^FEM1B complex with FEM1B^F549S, unneddylated (human, UniProt Q13617 1-745; P62877 1-108; Q15370 1-104; Q15369 17-112; Q9UK73 1-627, F549S)
[2] = molecular target: CRL2^FEM1B complex with FEM1B^Δ546-553 (FEM1B^DEL), unneddylated (human, UniProt Q13617 1-745; P62877 1-108; Q15370 1-104; Q15369 17-112; Q9UK73 1-627, Δ546-553)
[3] = molecular target: CRL2^FEM1B complex with FEM1B^F549T, unneddylated (human, UniProt Q13617 1-745; P62877 1-108; Q15370 1-104; Q15369 17-112; Q9UK73 1-627, F549T)
[4] = molecular target: CRL2^FEM1B complex with FEM1B^F549R, unneddylated (human, UniProt Q13617 1-745; P62877 1-108; Q15370 1-104; Q15369 17-112; Q9UK73 1-627, F549R)
[5] = molecular target: CRL2^FEM1B complex with FEM1B^Y275R/L278R, unneddylated (human, UniProt Q13617 1-745; P62877 1-108; Q15370 1-104; Q15369 17-112; Q9UK73 1-627, Y275R | L278R)

B1: FNIP1/FLCN complex (complex)
chain 1: MAPTLFQKLFSKRTGLGAPGRDARDPDCGFSWPLPEFDPSQIRLIVYQDCERRGRNVLFDSSVKRRNEDISVSKLGSDAQVKVFGKCCQLKPGGDSSSSLDSSVTSSSDIKDQCLKYQGSRCSSDANMLGEMMFGSVAMSYKGSTLKIHQIRSPPQLMLSKVFTARTGSSICGSLNTLQDSLEFINQDNNTLKADNNTVINGLLGNIGLSQFCSPRRAFSEQGPLRLIRSASFFAVHSNPMDMPGRELNEDRDSGIARSASLSSLLITPFPSPNSSLTRSCASSYQRRWRRSQTTSLENGVFPRWSIEESFNLSDESCGPNPGIVRKKKIAIGVIFSLSKDEDENNKFNEFFFSHFPLFESHMNKLKSAIEQAMKMSRRSADASQRSLAYNRIVDALNEFRTTICNLYTMPRIGEPVWLTMMSGTPEKNHLCYRFMKEFTFLMENASKNQFLPALITAVLTNHLAWVPTVMPNGQPPIKIFLEKHSSQSVDMLAKTHPYNPLWAQLGDLYGAIGSPVRLARTVVVGKRQDMVQRLLYFLTYFIRCSELQETHLLENGEDEAIVMPGTVITTTLEKGEIEESEYVLVTMHRNKSSLLFKESEEIRTPNCNCKYCSHPLLGQNVENISQQEREDIQNSSKELLGISDECQMISPSDCQEENAVDVKQYRDKLRTCFDAKLETVVCTGSVPVDKCALSESGLESTEETWQSEKLLDSDSHTGKAMRSTGMVVEKKPPDKIVPASFSCEAAQTKVTFLIGDSMSPDSDTELRSQAVVDQITRHHTKPLKEERGAIDQHQETKQTTKDQSGESDTQNMVSEEPCELPCWNHSDPESMSLFDEYFNDDSIETRTIDDVPFKTSTDSKDHCCMLEFSKILCTKNNKQNNEFCKCIETVPQDSCKTCFPQQDQRDTLSILVPHGDKESSDKKIAVGTEWDIPRNESSDSALGDSESEDTGHDMTRQVSSYYGGEQEDWAEEDEIPFPGSKLIEVSAVQPNIANFGRSLLGGYCSSYVPDFVLQGIGSDERFRQCLMSDLSHAVQHPVLDEPIAEAVCIIADMDKWTVQVASSQRRVTDNKLGKEVLVSSLVSNLLHSTLQLYKHNLSPNFCVMHLEDRLQELYFKSKMLSEYLRGQMRVHVKELGVVLGIESSDLPLLAAVASTHSPYVAQILL
chain 2: MNAIVALCHFCELHGPRTLFCTEVLHAPLPQGDGNEDSPGQGEQAEEEEGGIQMNSRMRAHSPAEGASVESSSPGPKKSDMCEGCRSLAAGHPGYISHDKETSIKYVSHQHPSHPQLFSIVRQACVRSLSCEVCPGREGPIFFGDEQHGFVFSHTFFIKDSLARGFQRWYSIITIMMDRIYLINSWPFLLGKVRGIIDELQGKALKVFEAEQFGCPQRAQRMNTAFTPFLHQRNGNAARSLTSLTSDDNLWACLHTSFAWLLKACGSRLTEKLLEGAPTEDTLVQMEKLADLEEESESWDNSEAEEEEKAPVLPESTEGRELTQGPAESSSLSGCGSWQPRKLPVFKSLRHMRQVLGAPSFRMLAWHVLMGNQVIWKSRDVDLVQSAFEVLRTMLPVGCVRIIPYSSQYEEAYRCNFLGLSPHVQIPPHVLSSEFAVIVEVHAAARSTLHPVGCEDDQSLSKYEFVVTSGSPVAADRVGPTILNKIEAALTNQNLSVDVVDQCLVCLKEEWMNKVKVLFKFTKVDSRPKEDTQKLLSILGASEEDNVKLLKFWMTGLSKTYKSHLMSTVRSPTASESRN
- koff [1]: 0.00178 s⁻¹
- koff [2]: 0.000955 s⁻¹
- koff [3]: 0.00184 s⁻¹
- koff [4]: 0.00141 s⁻¹
- koff [5]: 0.000653 s⁻¹
